Source: patent US20200317768A1 (published 2020)
Changes are numbered by the printed parent chain. Numbers in names are those of the source.

T1: cynomolgus monkey FcγRIIb extracellular domain, C-terminal His-tag (cynomolgus monkey)
T1 construct: also called cyno FcγRIIb; cynoFcγRIIb
T1 chain: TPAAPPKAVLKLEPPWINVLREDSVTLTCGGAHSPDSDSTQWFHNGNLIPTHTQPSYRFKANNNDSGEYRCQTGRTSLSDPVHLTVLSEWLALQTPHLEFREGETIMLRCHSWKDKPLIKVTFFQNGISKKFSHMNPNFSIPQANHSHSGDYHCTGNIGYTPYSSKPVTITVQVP

T2: human FcγRIIb extracellular domain, C-terminal His-tag (human, UniProt P31994 43-217)
T2 construct: also called human FcgRIIb; FcgRIIb
T2 sequence: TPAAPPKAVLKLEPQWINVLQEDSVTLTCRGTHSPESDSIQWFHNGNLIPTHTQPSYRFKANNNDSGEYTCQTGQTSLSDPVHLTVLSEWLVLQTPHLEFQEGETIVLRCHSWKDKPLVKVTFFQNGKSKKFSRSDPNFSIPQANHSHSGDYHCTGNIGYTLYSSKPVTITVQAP

T3: cynomolgus monkey FcγRIIIaS extracellular domain, C-terminal His-tag (cynomolgus monkey, UniProt Q8SPW2 21-206 at identity 1.00))
T3 construct: also called cyno FcγRIIIaS; cynoFcγRIIIaS
T3 chain: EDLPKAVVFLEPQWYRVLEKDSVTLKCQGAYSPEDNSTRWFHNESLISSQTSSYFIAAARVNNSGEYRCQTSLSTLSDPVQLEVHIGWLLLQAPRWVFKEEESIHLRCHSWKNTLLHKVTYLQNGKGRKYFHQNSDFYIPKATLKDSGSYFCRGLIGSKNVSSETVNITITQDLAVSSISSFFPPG

T4: cynomolgus monkey FcγRIIa3 extracellular domain, C-terminal His-tag (cynomolgus monkey)
T4 construct: also called cyno FcγRIIa3; cynoFcgRIIa3
T4 chain: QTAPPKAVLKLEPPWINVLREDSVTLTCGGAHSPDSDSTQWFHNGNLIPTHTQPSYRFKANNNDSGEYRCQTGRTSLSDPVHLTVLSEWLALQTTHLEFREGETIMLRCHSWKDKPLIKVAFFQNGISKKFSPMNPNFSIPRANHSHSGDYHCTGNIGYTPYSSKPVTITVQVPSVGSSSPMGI

T5: cynomolgus monkey FcγRIIa2 extracellular domain, C-terminal His-tag (cynomolgus monkey)
T5 construct: also called cyno FcγRIIa2; cynoFcgRIIa2
T5 chain: T4 chain with I127K, K130N, P133H, R142Q

T6: cynomolgus monkey FcγRIIa1 extracellular domain, C-terminal His-tag (cynomolgus monkey)
T6 construct: also called cyno FcγRIIa1; cynoFcgRIIa1
T6 chain: T4 chain with T95P, A121T, S128A, P133H, N135D

T7: human FcγRIIaR extracellular domain, His-tagged (human, UniProt P12318 34-217)
T7 construct: also called human FcγRIIa (type R); FcgRIIaR
T7 chain: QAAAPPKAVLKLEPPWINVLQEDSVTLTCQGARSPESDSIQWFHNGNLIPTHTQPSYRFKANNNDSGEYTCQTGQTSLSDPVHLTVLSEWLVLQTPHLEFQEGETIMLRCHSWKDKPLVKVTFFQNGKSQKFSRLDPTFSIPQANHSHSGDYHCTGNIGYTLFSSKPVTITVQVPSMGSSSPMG

B1: M103205H795-MY197/M103202L889-SK1 (antibody, human IgG1, kappa)
heavy: QVTLKESGPVLVKPTETLTLTCTVSGIDLSHDDISWVRQAPGKGLEWVGIISYAGSTYYASWAKGRLTISKDTSKNQVVLTMTNMDPVDTATYYCARGVPAYSHGGDLWGQGTLVTVSSASTKGPSVFPLAPSSKSTSGGTAALGCLVKDYFPEPVTVSWNSGALTSGVHTFPAVLQSSGLYSLSSVVTVPSSSLGTQTYICNVNHKPSNTKVDKKVEPKSCDKTHTCPPCPAPELLNGPSVFLFPPKPKDTLMISRTPEVTCVVVDVSDEDPEVKFNWYVDGVEVHNAKTKPREEQYNSTYRVVSVLTVLHQDWLNGKEYKCKVSNKALPKPIEKTISKAKGQPREPQVYTLPPSREEMTKNQVSLTCLVKGFYPSDIAVEWESNGQPENNYKTTPMVLDSDGSFFLYSKLTVDKSRWQQGNVFSCSVMHEALHNHYTQKSLSLSP
light: DIVMTQSPATLSLSPGERATLSCTSSQSVYHANWLSWFQQKPGQPPKLLIYWASTLAYGVPSRFSGSGSGTDFTLTISSLQPEDAATYYCAGGYGGGRYAFGQGTKVEIKRTVAAPSVFIFPPSDEQLKSGTASVVCLLNNFYPREAKVQWKVDNALQSGNSQESVTEQDSKDSTYSLSSTLTLSKADYEKHKVYACEVTHQGLSSPVTKSFNRGEC
notes: Substitutions introduced into M103205H795-SG1; expressed with M103202L889-SK1 as light chain
B2: M103205H795-MY147/M103202L889-SK1 (antibody, human IgG1, kappa)
heavy: B1 heavy with L237W, D270E, K332A
light: B1 light
notes: as for B1
B3: MS_M103205H795-SG1/M103202L889-SK1 (antibody, human IgG1, kappa)
heavy: not shown
light: B1 light
notes: Parent antibody of the Fc variants; heavy chain constant region SG1, light chain M103202L889-SK1; also called MS1032LO06-SG1
B4: M103205H795-MY073/M103202L889-SK1 (antibody, human IgG1, kappa)
heavy: not shown
light: B1 light
notes: Substitution put into M103205H795-SG1
B5: M103205H795-MY064/M103202L889-SK1 (antibody, human IgG1, kappa)
heavy: not shown
light: B1 light
notes: as for B4
B6: M103205H795-MY048/M103202L889-SK1 (P271D) (antibody, human IgG1, kappa)
heavy: not shown
light: B1 light
notes: Here the P271D molecule is meant; Put into M103205H795-SG1
B7: M103205H795-MY045/M103202L889-SK1 (antibody, human IgG1, kappa)
heavy: not shown
light: B1 light
notes: as for B4
B8: M103205H795-MY069/M103202L889-SK1 (antibody, human IgG1, kappa)
heavy: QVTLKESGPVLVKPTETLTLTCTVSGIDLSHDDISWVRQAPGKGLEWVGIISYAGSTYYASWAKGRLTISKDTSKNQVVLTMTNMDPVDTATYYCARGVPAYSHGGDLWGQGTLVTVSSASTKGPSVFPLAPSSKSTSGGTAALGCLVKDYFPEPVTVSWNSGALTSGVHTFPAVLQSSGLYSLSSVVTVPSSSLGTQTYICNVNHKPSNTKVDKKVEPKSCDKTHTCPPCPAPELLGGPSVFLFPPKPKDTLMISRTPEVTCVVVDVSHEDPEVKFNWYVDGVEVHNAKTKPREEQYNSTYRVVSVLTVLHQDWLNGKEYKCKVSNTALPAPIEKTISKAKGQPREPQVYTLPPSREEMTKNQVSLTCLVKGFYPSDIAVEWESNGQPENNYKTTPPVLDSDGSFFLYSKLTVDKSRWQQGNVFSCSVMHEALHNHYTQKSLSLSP
light: B1 light
notes: as for B4
B9: M103205H795-MY072/M103202L889-SK1 (antibody, human IgG1, kappa)
heavy: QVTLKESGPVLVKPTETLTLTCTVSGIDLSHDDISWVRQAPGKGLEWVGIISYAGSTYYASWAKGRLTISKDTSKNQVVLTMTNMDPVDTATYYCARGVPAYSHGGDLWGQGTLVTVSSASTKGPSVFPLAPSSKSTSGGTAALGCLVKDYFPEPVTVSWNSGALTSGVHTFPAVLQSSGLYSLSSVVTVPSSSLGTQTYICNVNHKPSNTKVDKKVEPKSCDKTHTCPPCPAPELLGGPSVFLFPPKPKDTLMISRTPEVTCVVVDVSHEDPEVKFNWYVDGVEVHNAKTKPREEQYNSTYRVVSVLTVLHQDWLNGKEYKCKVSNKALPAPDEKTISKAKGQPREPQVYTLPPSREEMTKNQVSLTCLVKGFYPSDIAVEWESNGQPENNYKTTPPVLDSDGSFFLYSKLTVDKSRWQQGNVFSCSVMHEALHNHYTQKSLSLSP
light: B1 light
notes: as for B4
B10: M103205H795-MY196/M103202L889-SK1 (antibody, human IgG1, kappa)
heavy: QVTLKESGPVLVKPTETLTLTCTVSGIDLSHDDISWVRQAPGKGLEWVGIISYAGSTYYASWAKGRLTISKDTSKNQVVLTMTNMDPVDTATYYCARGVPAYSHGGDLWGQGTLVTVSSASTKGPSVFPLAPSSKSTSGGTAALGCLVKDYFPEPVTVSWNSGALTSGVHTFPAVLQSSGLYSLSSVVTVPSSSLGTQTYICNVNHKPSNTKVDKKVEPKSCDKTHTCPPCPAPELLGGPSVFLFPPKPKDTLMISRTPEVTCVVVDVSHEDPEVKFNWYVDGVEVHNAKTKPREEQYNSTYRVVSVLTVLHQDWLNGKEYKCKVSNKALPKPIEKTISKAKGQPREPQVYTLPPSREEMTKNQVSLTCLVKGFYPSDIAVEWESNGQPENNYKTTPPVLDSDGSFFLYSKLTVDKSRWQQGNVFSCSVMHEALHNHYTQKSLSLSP
light: B1 light
notes: as for B4
B11: M103205H795-MY065/M103202L889-SK1 (antibody, human IgG1, kappa)
heavy: not shown
light: B1 light
notes: as for B4
B12: M103205H795-MY044/M103202L889-SK1 (antibody, human IgG1, kappa)
heavy: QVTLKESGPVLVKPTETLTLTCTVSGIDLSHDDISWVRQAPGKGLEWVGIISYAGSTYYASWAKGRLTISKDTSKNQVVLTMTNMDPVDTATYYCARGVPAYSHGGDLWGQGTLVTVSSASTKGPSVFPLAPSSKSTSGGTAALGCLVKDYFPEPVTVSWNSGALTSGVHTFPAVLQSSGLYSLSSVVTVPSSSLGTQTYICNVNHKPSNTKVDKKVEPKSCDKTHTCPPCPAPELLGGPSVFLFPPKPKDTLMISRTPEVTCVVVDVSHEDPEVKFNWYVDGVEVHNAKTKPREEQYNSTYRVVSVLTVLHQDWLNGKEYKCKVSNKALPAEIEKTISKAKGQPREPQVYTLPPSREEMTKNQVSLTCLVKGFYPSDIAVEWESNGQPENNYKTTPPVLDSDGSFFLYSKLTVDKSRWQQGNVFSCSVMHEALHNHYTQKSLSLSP
light: B1 light
notes: as for B4
B13: M103205H795-MY014/M103202L889-SK1 (antibody, human IgG1, kappa)
heavy: not shown
light: B1 light
notes: as for B4
B14: M103205H795-MY013/M103202L889-SK1 (antibody, human IgG1, kappa)
heavy: not shown
light: B1 light
notes: as for B4
B15: M103205H795-MY010/M103202L889-SK1 (antibody, human IgG1, kappa)
heavy: not shown
light: B1 light
notes: as for B4
B16: M103205H795-MY070/M103202L889-SK1 (antibody, human IgG1, kappa)
heavy: not shown
light: B1 light
notes: as for B4
B17: M103205H795-MY038/M103202L889-SK1 (antibody, human IgG1, kappa)
heavy: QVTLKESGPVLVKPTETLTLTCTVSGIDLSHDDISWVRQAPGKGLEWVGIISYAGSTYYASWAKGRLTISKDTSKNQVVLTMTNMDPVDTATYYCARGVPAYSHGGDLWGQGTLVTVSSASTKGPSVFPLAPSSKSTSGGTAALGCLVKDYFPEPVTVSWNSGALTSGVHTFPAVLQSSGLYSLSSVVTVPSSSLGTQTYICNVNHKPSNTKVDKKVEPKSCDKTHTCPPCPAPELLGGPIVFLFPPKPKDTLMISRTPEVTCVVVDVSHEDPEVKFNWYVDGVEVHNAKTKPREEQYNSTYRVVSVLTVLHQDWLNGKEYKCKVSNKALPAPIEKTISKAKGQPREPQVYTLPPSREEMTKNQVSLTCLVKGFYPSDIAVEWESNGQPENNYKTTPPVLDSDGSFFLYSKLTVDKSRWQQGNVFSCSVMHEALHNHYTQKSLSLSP
light: B1 light
notes: as for B4
B18: M103205H795-MY008/M103202L889-SK1 (antibody, human IgG1, kappa)
heavy: not shown
light: B1 light
notes: as for B4
B19: M103205H795-MY071/M103202L889-SK1 (antibody, human IgG1, kappa)
heavy: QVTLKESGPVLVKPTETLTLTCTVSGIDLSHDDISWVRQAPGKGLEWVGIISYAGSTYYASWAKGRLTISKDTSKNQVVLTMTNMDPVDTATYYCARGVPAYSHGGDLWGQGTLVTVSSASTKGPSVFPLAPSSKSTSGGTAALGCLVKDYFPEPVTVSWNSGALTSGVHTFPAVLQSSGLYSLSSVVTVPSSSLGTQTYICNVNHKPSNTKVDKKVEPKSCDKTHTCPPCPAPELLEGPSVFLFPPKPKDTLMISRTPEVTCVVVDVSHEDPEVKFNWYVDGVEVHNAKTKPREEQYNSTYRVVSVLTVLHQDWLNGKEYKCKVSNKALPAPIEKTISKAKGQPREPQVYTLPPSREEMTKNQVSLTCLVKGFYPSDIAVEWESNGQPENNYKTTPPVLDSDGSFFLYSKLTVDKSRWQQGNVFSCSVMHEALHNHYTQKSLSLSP
light: B1 light
notes: as for B4
B20: M103205H795-MY043/M103202L889-SK1 (antibody, human IgG1, kappa)
heavy: not shown
light: B1 light
notes: as for B4
B21: M103205H795-MY016/M103202L889-SK1 (antibody, human IgG1, kappa)
heavy: not shown
light: B1 light
notes: as for B4
B22: M103205H795-MY124/M103202L889-SK1 (antibody, human IgG1, kappa)
heavy: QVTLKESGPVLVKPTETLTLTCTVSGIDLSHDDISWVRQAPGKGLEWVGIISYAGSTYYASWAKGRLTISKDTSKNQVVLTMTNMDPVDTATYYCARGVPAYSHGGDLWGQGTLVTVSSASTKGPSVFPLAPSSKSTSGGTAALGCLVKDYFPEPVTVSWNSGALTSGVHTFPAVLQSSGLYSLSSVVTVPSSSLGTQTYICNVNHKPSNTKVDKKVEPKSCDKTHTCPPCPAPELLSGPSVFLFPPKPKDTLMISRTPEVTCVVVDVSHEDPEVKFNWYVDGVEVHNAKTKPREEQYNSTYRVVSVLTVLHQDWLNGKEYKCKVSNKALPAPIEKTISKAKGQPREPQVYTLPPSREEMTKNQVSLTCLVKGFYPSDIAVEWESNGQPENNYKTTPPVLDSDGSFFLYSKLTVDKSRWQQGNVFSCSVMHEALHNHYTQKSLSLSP
light: B1 light
notes: as for B4
B23: M103205H795-MY063/M103202L889-SK1 (antibody, human IgG1, kappa)
heavy: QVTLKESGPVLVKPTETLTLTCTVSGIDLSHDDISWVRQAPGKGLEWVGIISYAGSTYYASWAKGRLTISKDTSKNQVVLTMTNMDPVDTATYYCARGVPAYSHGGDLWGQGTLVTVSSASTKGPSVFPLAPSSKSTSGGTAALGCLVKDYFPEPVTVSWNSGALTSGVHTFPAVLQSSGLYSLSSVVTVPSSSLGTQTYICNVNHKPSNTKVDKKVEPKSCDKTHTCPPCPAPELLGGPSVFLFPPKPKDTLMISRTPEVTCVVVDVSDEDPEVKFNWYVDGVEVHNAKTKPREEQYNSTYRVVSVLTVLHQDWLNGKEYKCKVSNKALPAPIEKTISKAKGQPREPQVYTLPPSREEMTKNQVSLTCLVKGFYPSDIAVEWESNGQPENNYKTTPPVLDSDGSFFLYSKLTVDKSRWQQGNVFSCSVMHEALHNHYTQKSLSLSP
light: B1 light
notes: as for B4
B24: M103205H795-MY041/M103202L889-SK1 (antibody, human IgG1, kappa)
heavy: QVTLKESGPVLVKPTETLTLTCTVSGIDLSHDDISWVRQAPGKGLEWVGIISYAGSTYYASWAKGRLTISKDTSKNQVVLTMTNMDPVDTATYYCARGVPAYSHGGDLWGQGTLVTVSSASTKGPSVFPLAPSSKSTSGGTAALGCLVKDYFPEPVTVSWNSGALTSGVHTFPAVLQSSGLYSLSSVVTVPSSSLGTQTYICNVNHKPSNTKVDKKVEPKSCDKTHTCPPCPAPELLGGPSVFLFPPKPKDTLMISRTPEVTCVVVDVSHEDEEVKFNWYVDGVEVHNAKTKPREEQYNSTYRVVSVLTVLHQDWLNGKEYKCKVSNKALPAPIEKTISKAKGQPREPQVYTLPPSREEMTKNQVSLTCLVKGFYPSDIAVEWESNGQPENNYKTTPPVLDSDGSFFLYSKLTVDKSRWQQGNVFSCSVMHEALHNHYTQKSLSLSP
light: B1 light
notes: as for B4
B25: M103205H795-MY006/M103202L889-SK1 (antibody, human IgG1, kappa)
heavy: not shown
light: B1 light
notes: as for B4
B26: M103205H795-MY037/M103202L889-SK1 (antibody, human IgG1, kappa)
heavy: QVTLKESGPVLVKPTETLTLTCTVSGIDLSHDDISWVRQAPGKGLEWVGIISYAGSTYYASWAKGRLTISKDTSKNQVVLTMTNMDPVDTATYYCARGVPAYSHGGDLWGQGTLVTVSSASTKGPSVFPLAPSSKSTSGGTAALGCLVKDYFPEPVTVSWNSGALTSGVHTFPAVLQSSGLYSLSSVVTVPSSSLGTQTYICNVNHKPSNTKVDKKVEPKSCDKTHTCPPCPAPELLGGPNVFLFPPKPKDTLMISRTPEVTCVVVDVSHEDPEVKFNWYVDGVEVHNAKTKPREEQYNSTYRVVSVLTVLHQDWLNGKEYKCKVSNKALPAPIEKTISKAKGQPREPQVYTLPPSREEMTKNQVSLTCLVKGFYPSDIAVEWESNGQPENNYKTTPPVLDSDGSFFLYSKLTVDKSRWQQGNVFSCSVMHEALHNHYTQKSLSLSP
light: B1 light
notes: as for B4
B27: M103205H795-MY068/M103202L889-SK1 (antibody, human IgG1, kappa)
heavy: not shown
light: B1 light
notes: as for B4

Molecular target: T1, cynomolgus monkey FcγRIIb extracellular …
Test: SPR (Biacore), antibody captured, FcgR analyte

In order of falling Kd:
1. B2  960 nM
2. B1  170 nM

molecular target: T8, human FcγRIIIaV extracellular domain, C-terminal His-tag (human, UniProt P08637 17-208); test: SPR (Biacore), antibody captured, FcgR analyte
T8 construct: also called human FcgRIIIaV; FcgRIIIaV
T8 sequence (P08637 17-208 F176V): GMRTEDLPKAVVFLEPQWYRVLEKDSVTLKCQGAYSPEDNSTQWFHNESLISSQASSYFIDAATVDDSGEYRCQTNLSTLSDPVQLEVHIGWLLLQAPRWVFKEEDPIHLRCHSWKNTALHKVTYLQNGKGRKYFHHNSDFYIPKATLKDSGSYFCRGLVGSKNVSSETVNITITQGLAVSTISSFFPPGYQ

In order of rising Kd:
1. B1  10000 nM
2. B2  11000 nM

molecular target: T2, human FcγRIIb extracellular domain, …; test: SPR (Biacore), antibody captured, FcgR analyte

In order of rising Kd:
1. B2  850 nM
2. B1  890 nM

Molecular target: T3, cynomolgus monkey FcγRIIIaS …
Test: SPR (Biacore), antibody captured, FcgR analyte

In order of falling Kd:
1. B2  5500 nM
2. B1  2100 nM

Molecular target: T4, cynomolgus monkey FcγRIIa3 …
Test: SPR (Biacore), antibody captured, FcgR analyte

In order of falling Kd:
1. B1  14000 nM
2. B2  6600 nM

Molecular target: T5, cynomolgus monkey FcγRIIa2 …
Test: SPR (Biacore), antibody captured, FcgR analyte

In order of falling Kd:
1. B2  2200 nM
2. B1  560 nM

Molecular target: T6, cynomolgus monkey FcγRIIa1 …
Test: SPR (Biacore), antibody captured, FcgR analyte

In order of falling Kd:
1. B2  2200 nM
2. B1  580 nM

Molecular target: T7, human FcγRIIaR extracellular domain, …
Test: SPR, antibody captured, FcgR analyte

In order of rising Kd:
1. B23  210 nM
2. B8  390 nM
3. B19  450 nM
4. B9  480 nM
5. B4  500 nM
6. B11  510 nM
7. B22  520 nM
8. B27  520 nM
9. B5  680 nM
10. B16  740 nM
11. B26  910 nM
12. B12  920 nM
13. B21  940 nM
14. B13  960 nM
15. B3  1100 nM
16. B6  1200 nM
17. B24  1200 nM
18. B10  1300 nM
19. B17  1500 nM
20. B20  1500 nM
21. B7  1600 nM
22. B15  1800 nM
23. B18  1800 nM
24. B25  1800 nM
25. B14  5100 nM
